Experimental data published in US11186651B2, “Monoclonal antibody for the detection of the antiretroviral drug emtricitabine (FTC, 2′,3′-dideoxy-5-fluoro-3′-thiacytidine)” (THE UNITED STATES OF AMERICA, AS REPRESENTED BY THE …, priority 2018, dated 2021).
One block for each molecule: values may come before it.

Tests used:
[1] = cited from earlier work
[2] = FTC screening assay: EIA on FTC-peptide coated plates with competition by free FTC; assay type: binding; settings: supernatant incubated with free FTC
Protocol: (§1) An assay was developed to screen the Mabs for reactivity to the FTC conjugates. Microtiter plates were coated with the following reagents: FTC-peptide-dextran, FTC-peptide, FTC-peptide-LPH, FTC-peptide-BSA, FTC heptanoic acid, peptide only, peptide-LPH, peptide-BSA, BSA, LPH, and normal mouse serum (NMS). All compounds were diluted into sodium bicarbonate buffer, pH 9.6, to a concentration of 5 ug/ml; NMS was diluted 1:15. One hundred microliters of each solution was added to a column of the microtiter plate such that each row of the plate allowed the testing of a single clonal supernatant against all of the compounds in a single run. Plates were incubated at 4° C. overnight and then washed 3× with phosphate-buffered saline (PBS) containing 0.05% Tween 20 (PBS-T). Plates were blocked with PBS containing 0.5% nonfat dry milk for 1 hour at 37° C., washed 3×, and dried at 37° C. for 30 minutes. […]
(§2) Clonal supernatants (100 ul) were added to the appropriate wells and incubated at 37° C. for 1 hr. […] Absorbance was measured at 450 nm with a 630 nm reference.
(§3) Persistently reactive clones were further tested using FTC-peptide coated plates. […] Antibodies that yielded a reduction in absorbance versus the sample containing no FTC were selected for optimization in a FTC detection assay.

[3] = system: carrier proteins (LPH, BSA); experiment: FTC screening assay: EIA on plates coated with carrier proteins; assay type: binding; settings: plates coated at 5 ug/ml
Protocol: as §1, §2, §3

[4] = Competitive indirect EIA, reactivity of 5D2 to naturally occurring structural analogs; assay type: binding; settings: cytidine, cysotine, deoxycytidine, adenine, adenosine, deoxyadenosine, guanine, guanosine, deoxyguanosine, thymine, 5-methyluridine, thymidine, uracil, uridine, deoxyuridine; 12 to 1,000 ug/ml
Text: Because FTC is an analog of cytidine, a competitive indirect EIA was used to evaluate the reactivity of 5D2 to naturally occurring structural analogs consisting of nitrogenous nucleic acid bases, ribonucleosides, and deoxyribonucleosides, including cytidine, cysotine, deoxycytidine, adenine, adenosine, deoxyadenosine, guanine, guanosine, deoxyguanosine, thymine, 5-methyluridine, thymidine, uracil, uridine, and deoxyuridine. For the competitive assay, the concentrations of these analogs ranged from 12 to 1,000 ug/ml which is similar to the range of FTC found in urine. Reactivity was not detected to all of these naturally occurring analogs using this EIA.

[5] = Cross-reactivity test of monoclonal antibody 5D2: FTC; assay type: binding
Protocol: (§4) The monoclonal antibody 5D2 was tested for cross-reactivity. 5D2 was determined to be specific for FTC, and to not bind to the following compounds: […]

[6] = Cross-reactivity test of monoclonal antibody 5D2: related compounds; assay type: binding; settings: Lamivudine (3TC), FTC-Triphosphate, FTC-Diphosphate, Cytidine, Deoxycytidine, Deoxyuridine, Guanosine, Deoxyguanosine, Deoxyadenosine, Adenosine, Thymidine, Uridine, 5-Methyluridine
Protocol: as §4

Molecule: Nc1nc(=O)n([C@@H]2CS[C@H](CO)O2)cc1F [FTC]
concentration found in serum or plasma ([1]; serum or plasma): 1 to 300 ng/mL
concentration excreted unchanged in urine ([1]; urine): 1000 to 500000 ng/mL

binding to related compounds (cross-reactivity) [6]: not bind
B1: 5D2: mouse IgG2b kappa monoclonal antibody that specifically binds FTC; heavy chain SEQ ID NO: 1, light chain SEQ ID NO: 2 (antibody, listed as Mus musculus)
heavy: QVQLQQPGAELVKPGASVKVSCKASGYTFTSYWMHWVKQRPGQGLEWIGRIHLSDSDTNYNQNFKDKATLTVDKSSRTAHMHLSSLTSADSAVYYCAMGGTFQSNYDTYWGQGTLVTVSAAKTTPPSVYPLAPGCGDTTGSSVTLGCLVKGYFPESVTVTWNSGSLSSSVHTFPALLQSGLYTMSSSVTVPSSTWPSQTVTCSVAHPASSTTVDKKLEPSGPISTINPCPPCKECHKCPAPNLEGGPSVFIFPPNIKDVLMISLTPKVTCVVVDVSEDDPDVRISWFVNNVEVHTAQTQTHREDYNSTIRVVSALPIQHQDWMSGKEFKCKVNNKDLPSPIERTISKIKGLVRAPQVYILPPPAEQLSRKDVSLTCLVVGFNPGDISVEWTSNGHTEENYKDTAPVLDSDGSYFIYSKLDIKTSKWEKTDSFSCNVRHEGLKNYYLKKTISRSPGK
light: DIQMTQSPASLSASVGETVTITCRASGNIHNYLAWYQQKQGKSPQLLVYNAKTLTDGVPSRFSGSGSGTQYSLKINSLQPEDFGNYYCQHFLYTPYTFGGGTKLEMRRADAAPTVSIFPPSSEQLTSGGASVVCFLNNFYPKDINVKWKIDGSERQNGVLNSWTDQDSKDSTYSMSSTLTLTKDEYERHNSYTCEATHKTSTSPIVKSFNRNEC
reactivity with FTC (reduction in absorbance versus sample containing no FTC) [2]: competitively reactive
reactivity with the carrier proteins [3]: did not react
reactivity to naturally occurring analogs [4]: not detected
specificity for FTC [5]: specific
